Blank lines part the entries; values can stand above or below the molecule they belong to.
Assays:
[1] = target: Werner syndrome protein (WRN), recombinant His6-tagged, wild type (human) (UniProt Q14191)
[2] = target: WRN-E84A, full-length WRN with the N-terminal exonuclease inactivating mutation E84 to alanine (human) (UniProt Q14191)

radiometric DNA helicase assay, percent unwinding of a telomeric-repeat substrate lacking the 3′-ss tail by WRN (3 nM) with RPA 6 to 24 nM [1]: 22%
Molecule: Recombinant human replication protein A (RPA) (complex)

radiometric DNA helicase assay, increase in unwound product of a 30-nt gap telomeric substrate pre-bound with POT1v1 (6 to 48 nM), WRN-E84A 6 nM; value at the 1:8 ratio of WRN-E84A to POT1v1 [2]: 10%
B1: Protector of telomeres 1, variant 1 (POT1v1) (natural protein)
chain: MSLVPATNYIYTPLNQLKGGTIVNVYGVVKFFKPPYLSKGTDYCSVVTIVDQTNVKLTCLLFSGNYEALPIIYKNGDIVRFHRLKIQVYKKETQGITSSGFASLTFEGTLGAPIIPRTSSKYFNFTTEDHKMVEALRVWASTHMSPSWTLLKLCDVQPMQYFDLTCQLLGKAEVDGASFLLKVWDGTRTPFPSWRVLIQDLVLEGDLSHIHRLQNLTIDILVYDNHVHVARSLKVGSFLRIYSLHTKLQSMNSENQTMLSLEFHLHGGTSYGRGIRVLPESNSDVDQLKKDLESANLTANQHSDVICQSEPDDSFPSSGSVSLYEVERCQQLSATILTDHQYLERTPLCAILKQKAPQQYRIRAKLRSYKPRRLFQSVKLHCPKCHLLQEVPHEGDLDIIFQDGATKTPDVKLQNTSLYDSKIWTTKNQKGRKVAVHFVKNNGILPLSNECLLLIEGGTLSEICKLSNKFNSVIPVRSGHEDLELLDLSAPFLIQGTIHHYGCKQCSSLRSIQNLNSLVDKTSWIPSSVAEALGIVPLQYVFVMTFTLDDGTGVLEAYLMDSDKFFQIPASEVLMDDDLQKSVDMIMDMFCPPGIKIDAYPWLECFIKSYNVTNGTDNQICYQIFDTTVAEDVI

Source: paper PMC2650403
